Source: US20050272637A1 (OREGON HEALTH AND SCIENCE UNIVERSITY, published 2005)
Residue numbers refer to the chain shown, from its start. One block for each binder: values may come before it.

Legend:
[1] = biological target: T1, EGFR (HER-1, erbB-1), human epidermal growth factor receptor (human, UniProt P00533 25-1210); test: saturation binding to EGFR-transfected Cos-7 cells, herstatin ELISA, nonlinear regression (FIG. 5A)
T1 construct: also called EGF receptor
Description: (§1) ELISA. […] Cells were washed with Phosphate Buffered Saline (PBS) and extracted in 50 mM Tris-HCl, pH 7.0, 1.0% NP-40.
(§2) Statistical comparisons between different binding curves were performed by extra sums-of-squares F-test nonlinear regression coefficients. All tests were performed (α=0.05) using GraphPad Prism 4™ software (GraphPad™ Software, 1994-2003).

[2] = biological target: T2, IGF-1R, insulin-like growth factor 1 receptor (human, UniProt P08069 31-1367); test: saturation binding to IGF-IR/3T3 cells, herstatin ELISA, nonlinear regression (FIG. 5B)
T2 construct: On IGF-IR transfected 3T3 cells (hIGF-1R-3T3) in cell ELISA, or from their extracts in pull-downs (detected through the beta subunit); The entry is the precursor; the processing into alpha and beta subunits is not described; also called IGF-IR; IGF-1 receptor
T2 sequence (P08069 31-1367 limits assumed): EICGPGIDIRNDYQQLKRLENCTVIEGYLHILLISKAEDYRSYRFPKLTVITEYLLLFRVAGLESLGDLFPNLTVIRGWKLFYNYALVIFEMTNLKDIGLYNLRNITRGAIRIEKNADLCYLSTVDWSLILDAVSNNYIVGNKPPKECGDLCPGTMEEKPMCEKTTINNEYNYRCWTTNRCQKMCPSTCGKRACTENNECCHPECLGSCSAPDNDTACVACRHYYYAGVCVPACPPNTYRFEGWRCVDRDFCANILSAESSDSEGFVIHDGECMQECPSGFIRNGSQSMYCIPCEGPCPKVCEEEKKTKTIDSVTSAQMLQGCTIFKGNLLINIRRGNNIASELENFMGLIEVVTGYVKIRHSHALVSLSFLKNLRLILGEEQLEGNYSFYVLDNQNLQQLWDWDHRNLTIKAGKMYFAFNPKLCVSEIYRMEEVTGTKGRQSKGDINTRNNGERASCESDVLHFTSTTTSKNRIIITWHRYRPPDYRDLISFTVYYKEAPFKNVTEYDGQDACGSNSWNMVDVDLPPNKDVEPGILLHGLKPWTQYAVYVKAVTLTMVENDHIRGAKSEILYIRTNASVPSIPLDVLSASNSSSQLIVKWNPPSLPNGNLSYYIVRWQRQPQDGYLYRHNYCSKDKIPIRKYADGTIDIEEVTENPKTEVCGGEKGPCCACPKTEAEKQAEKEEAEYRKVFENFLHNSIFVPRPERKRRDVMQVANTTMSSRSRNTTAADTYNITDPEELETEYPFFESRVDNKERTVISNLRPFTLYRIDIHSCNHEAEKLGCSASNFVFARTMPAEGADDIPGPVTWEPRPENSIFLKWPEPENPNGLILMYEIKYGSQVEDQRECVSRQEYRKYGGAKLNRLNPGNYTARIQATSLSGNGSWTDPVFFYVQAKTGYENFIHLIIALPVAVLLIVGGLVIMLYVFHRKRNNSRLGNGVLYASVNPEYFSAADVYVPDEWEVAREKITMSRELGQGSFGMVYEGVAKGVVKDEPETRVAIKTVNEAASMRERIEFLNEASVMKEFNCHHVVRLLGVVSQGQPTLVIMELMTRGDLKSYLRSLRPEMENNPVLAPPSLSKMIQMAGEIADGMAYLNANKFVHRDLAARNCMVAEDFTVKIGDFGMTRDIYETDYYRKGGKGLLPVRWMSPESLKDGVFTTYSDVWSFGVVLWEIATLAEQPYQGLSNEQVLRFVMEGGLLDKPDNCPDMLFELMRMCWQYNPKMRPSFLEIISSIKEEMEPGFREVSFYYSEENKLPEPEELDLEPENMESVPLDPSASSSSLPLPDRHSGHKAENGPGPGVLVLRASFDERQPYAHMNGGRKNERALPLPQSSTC
Description: as §1, §2

[3] = biological target: HER-4 (erbB-4), human receptor (human, UniProt Q15303 26-1308); test: ELISA of Int8 bound to transfected cells (FIG. 3B)
Sequence of HER-4 (erbB-4), human receptor (Q15303 26-1308 limits assumed): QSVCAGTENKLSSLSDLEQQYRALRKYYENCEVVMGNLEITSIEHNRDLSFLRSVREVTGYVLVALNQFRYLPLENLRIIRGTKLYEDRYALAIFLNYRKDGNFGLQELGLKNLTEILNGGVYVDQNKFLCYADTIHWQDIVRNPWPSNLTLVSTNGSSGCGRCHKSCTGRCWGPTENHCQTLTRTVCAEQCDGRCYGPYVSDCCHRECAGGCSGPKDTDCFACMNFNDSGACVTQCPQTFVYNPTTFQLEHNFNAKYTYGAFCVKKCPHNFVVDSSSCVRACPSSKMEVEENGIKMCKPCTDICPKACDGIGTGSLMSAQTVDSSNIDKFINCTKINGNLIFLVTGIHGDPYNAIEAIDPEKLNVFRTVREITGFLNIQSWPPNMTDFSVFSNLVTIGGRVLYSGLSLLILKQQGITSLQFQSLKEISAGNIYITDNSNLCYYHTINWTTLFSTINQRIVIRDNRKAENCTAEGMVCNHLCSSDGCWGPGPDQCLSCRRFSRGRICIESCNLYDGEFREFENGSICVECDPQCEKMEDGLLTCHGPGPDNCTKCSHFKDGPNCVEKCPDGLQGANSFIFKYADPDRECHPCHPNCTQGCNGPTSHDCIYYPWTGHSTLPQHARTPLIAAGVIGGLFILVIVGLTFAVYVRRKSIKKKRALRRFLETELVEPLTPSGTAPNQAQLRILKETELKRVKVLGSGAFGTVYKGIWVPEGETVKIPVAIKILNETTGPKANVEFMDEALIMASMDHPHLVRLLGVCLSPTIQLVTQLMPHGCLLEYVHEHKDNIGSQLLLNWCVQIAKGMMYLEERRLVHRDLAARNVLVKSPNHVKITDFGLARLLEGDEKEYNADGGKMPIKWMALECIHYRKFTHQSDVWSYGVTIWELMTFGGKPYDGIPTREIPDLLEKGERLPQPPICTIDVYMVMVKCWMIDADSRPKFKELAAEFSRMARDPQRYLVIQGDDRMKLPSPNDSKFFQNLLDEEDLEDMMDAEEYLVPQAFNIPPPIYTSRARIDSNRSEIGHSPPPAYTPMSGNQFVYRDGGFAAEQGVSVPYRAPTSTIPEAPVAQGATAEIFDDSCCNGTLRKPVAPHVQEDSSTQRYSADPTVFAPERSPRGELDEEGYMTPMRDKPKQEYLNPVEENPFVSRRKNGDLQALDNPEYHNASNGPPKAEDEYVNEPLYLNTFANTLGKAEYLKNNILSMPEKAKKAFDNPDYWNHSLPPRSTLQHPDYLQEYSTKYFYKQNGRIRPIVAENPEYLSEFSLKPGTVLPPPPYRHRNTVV
Description: as §1

[4] = biological target: T3, HER-2 (erbB-2), human receptor (human, UniProt P04626 23-1255); test: saturation binding to HER-2/3T3 cells, herstatin ELISA, nonlinear regression (FIG. 5B)
T3 construct: On HER-2-transfected Cos-7 cells or 3T3/HER-2 cells (cell ELISA), or from transfected Cos-7 cell extracts (pull-down)
Description: as §1, §2

[5] = biological target: T2, IGF-1R, insulin-like growth factor 1 …; test: saturation binding to IGF-IR 3T3 cells, herstatin ELISA (determination of EXAMPLE 2)
Description: as §1, §2

[6] = biological target: T2, IGF-1R, insulin-like growth factor 1 …; test: saturation binding to IGF-IR transfected 3T3 cells, herstatin ELISA, nonlinear regression
Description: as §1, §2

[7] = biological target: T3, HER-2 (erbB-2), human receptor; test: saturation binding to HER-2-transfected Cos-7 cells, herstatin ELISA, nonlinear regression (FIG. 5A)
Description: as §1, §2

[8] = biological target: T3, HER-2 (erbB-2), human receptor; test: herstatin ELISA of peptide bound to HER-2 overexpressing cells
Description: as §1

[9] = biological target: T3, HER-2 (erbB-2), human receptor; test: pull-down of HER-2 from transfected cell extracts, Western blot
Description: Methods. Cell lines, expression vectors, protein purification, pull down assays, antibodies and ELISA assays were as described under EXAMPLE 1, herein above. […] Following washing steps, the protein bound to the agarose was analyzed as a Western blot with receptor-specific antibodies.

Kd [1]: 78 nM | Kd [2]: 70 nM | binding result [3]: binds | Kd [4]: 66 nM | Kd [5]: 40 nM | Kd [6]: 40 to 150 nM | Kd [7]: 50 nM
B1: RBD Int8 polypeptide (intron 8-encoded receptor binding domain of herstatin, expressed as a bacterial peptide) (peptide)
chain: GTHSLPPRPAAVPVPLRMQPGPAHPVLSFLRPSWDLVSAFYSLPLAPLSPTSVPISPVSVGRGPDPDAHVAVDLSRYEG
notes: Purified from BL-21 bacteria; also called Int8 RBD polypeptide; Int8 peptide; not shown: pET 30 vector-encoded tags (His tag used for nickel purification, S-protein tag used for immobilisation)

fold weaker binding than the wildtype peptide [8]: ~2 fold | fold weaker binding than the wild type sequence (SEQ ID NO:24) [9]: ~2 fold
B2: mutant Int8 polypeptide with Arg to Ile mutation at residue 31 (peptide, not shown: small tags and cut ends)
chain: B1 chain with R31I
notes: also called mutant RBD Int8 polypeptide; mutant Int8 RBD polypeptide
